Patent publication US20200283478

Assays:
Compound 112 = test system: T1, Compound 112
T1 sequence: WNLVRIGLTR

Pep2-8 = test system: T2, Pep2-8
T2 sequence: TVFTSWEEYLDWV

Compound 29 = test system: T3, Compound 29
T3 sequence: SGCFIPWNLQRIGLLC

Compound 26 = test system: T4, Compound 26
T4 sequence: SGCFIPWNLQRIGLLC

PCSK9-R167A:R215A:R218A
FXIa cleavage of the P′ helix (immunoblot) (Compound 112): able to increase the FXIa-mediated cleavage of the P′ helix at R160-I161 in a similar fashion as shown for Fab33
FXIa cleavage of the P′ helix (immunoblot) (Pep2-8): largely prevented cleavage of the P′ helix by FXIa
FXIa cleavage of the P′ helix (immunoblot) (Compound 29): accelerated the cleavage reaction, leading to almost complete cleavage of the P′ helix
FXIa cleavage of the P′ helix (immunoblot) (Compound 26): accelerated the cleavage reaction, leading to almost complete cleavage of the P′ helix
